From article PMC9436306 (Proceedings of the National Academy of Sciences of the …, 2022)

Tests used:
[1] = biological target: T1, ALIX, full-length, Cy3-labeled (human, UniProt Q8WUM4 1-868, sulpho-Cy3 maleimide on native surface-exposed cysteines); experiment: recruitment to giant unilamellar vesicles (GUVs), confocal fluorescence microscopy; ALIX pathway: ALG-2 200 nM, ALIX 100 nM, with or without CHMP4B 10 nM, incubated 15 min in reaction buffer (25 mM Hepes pH 7.4, 125 mM NaCl, 0.2 mM TCEP), then added to 30% DOPS GUVs and imaged after 15 min at room temperature; read-out: puncta on the GUV periphery and their colocalization; settings: both partners purified
T1 construct: ALIX (PDCD6IP), ESCRT accessory protein with Bro1 domain, V domain and proline-rich domain; also called ALIX (Cy3); source: HEK293 cells, purified (StrepTactin Sepharose, gel filtration)
T1 sequence (looked up): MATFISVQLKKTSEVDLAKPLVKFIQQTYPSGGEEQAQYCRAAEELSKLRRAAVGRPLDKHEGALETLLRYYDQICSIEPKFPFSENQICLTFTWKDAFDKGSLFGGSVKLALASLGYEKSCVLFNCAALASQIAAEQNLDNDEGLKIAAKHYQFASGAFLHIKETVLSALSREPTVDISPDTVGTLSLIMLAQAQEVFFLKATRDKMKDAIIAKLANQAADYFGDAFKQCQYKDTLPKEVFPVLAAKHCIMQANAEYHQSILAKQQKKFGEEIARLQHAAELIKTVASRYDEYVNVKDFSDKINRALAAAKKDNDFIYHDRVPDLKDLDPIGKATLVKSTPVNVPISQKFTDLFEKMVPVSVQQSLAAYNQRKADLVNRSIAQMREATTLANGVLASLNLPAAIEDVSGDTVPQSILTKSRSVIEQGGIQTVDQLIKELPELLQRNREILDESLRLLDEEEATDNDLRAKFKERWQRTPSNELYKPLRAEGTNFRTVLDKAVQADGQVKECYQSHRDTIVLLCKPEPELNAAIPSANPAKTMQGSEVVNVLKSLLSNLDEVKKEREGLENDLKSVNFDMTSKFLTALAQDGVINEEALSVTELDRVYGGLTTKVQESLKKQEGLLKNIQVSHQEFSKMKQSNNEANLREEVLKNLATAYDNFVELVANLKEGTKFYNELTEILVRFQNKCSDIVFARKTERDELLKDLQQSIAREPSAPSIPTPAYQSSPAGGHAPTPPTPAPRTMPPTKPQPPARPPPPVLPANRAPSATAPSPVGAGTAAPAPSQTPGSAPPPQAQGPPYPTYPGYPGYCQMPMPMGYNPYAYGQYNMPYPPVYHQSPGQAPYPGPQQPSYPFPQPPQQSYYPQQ

[2] = biological target: T2, ESCRT-I complex (TSG101, VPS28, VPS37B, MVB12A), Cy3-labeled (human, UniProt Q99816 1-390; Q9UK41 1-221; Q9H9H4 1-285; Q96EY5 1-273); experiment: recruitment to giant unilamellar vesicles (GUVs), confocal fluorescence microscopy; ESCRT-I/II pathway: ALG-2 200 nM, ESCRT-I (Cy3) 50 nM, with or without ESCRT-II 200 nM and CHMP6 (Atto 488) 400 nM, incubated 15 min in reaction buffer, then 30% DOPS GUVs added and imaged after 15 min; ESCRT-I kept at a concentration at which it did not bind GUVs on its own; settings: both partners purified
T2 construct: TSG101, subunit of human ESCRT-I; VPS28, subunit of human ESCRT-I; VPS37B, subunit of human ESCRT-I; MVB12A, subunit of human ESCRT-I; Labeled with sulpho-Cy3 maleimide on native surface-exposed cysteines; It calls human ESCRT-I a soluble heterotetramer; also called ESCRT-I (Cy3); source: HEK293 cells, purified (StrepTactin Sepharose, gel filtration); copies: + + +
T2 sequence (Q99816 whole entry, chain 1 of 4, other chains not shown): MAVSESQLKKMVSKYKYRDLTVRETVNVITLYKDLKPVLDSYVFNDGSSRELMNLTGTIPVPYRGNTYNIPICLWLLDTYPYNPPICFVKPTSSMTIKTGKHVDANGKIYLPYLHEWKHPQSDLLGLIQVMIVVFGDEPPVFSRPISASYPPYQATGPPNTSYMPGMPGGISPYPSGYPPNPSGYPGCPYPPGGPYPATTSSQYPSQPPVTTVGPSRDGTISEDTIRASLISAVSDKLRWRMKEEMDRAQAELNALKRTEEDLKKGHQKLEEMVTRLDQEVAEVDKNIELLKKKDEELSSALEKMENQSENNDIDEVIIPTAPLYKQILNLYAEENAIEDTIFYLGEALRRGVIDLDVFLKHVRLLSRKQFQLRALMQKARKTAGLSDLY
T2 sequence (Q9UK41 whole entry, chain 2 of 4, other chains not shown): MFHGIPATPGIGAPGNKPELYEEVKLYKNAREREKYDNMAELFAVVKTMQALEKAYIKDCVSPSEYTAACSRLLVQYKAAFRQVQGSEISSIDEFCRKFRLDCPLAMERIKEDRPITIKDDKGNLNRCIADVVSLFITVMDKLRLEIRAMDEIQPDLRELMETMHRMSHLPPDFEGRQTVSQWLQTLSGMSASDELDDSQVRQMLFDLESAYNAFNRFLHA
T2 sequence (Q9H9H4 whole entry, chain 3 of 4, other chains not shown): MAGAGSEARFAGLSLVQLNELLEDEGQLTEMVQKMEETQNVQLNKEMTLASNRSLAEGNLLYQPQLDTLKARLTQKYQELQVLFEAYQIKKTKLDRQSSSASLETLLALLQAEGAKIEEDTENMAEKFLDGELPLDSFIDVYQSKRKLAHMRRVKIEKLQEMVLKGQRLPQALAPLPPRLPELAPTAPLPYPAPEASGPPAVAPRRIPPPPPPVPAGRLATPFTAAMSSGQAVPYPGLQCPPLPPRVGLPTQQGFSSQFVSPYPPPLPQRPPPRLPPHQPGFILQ

B1: ALG-2, fluorescently labeled (Atto 488) via A78C (natural protein, UniProt O75340 1-191, looked up)
chain: MAAYSYRPGPGAGPGPAAGAALPDQSFLWNVFQRVDKDRSGVISDTELQQALSNGTWTPFNPVTVRSIISMFDRENKCGVNFSEFTGVWKYITDWQNVFRTYDRDNSGMIDKNELKQALSGFGYRLSDQFHDILIRKFDRQGRGQIAFDDFIQGCIVLQRLTDIFRRYDTDQDGWIQVSYEQYLSMVFSIV
modifications: Atto 488 maleimide on the cysteine of A78C (25% labeling efficiency)
notes: also called ALG-2 (Atto 488); labeled ALG-2; source: E. coli BL21 (DE3), purified (Ni-NTA, gel filtration, anion exchange, gel filtration)
[1]
  binding result: binds
[2]
  binding result: binds
